Laboratory results taken from the DeepSol protein solubility set.

Test: soluble on expression in E. coli; label from the status in PepcDB or PDB records

Q: For “MASESAVKDSQPSLDLASATSGDKIVTAQENGKAPDGQTVAGEVMGPQRPRSNSGRELTDEEILASVMIKNLDTGEEIPLSLAEEKLPTGINPLTLHIMRRTKEYVSNDAAQSDDEEKLQSQPTDTDGGRLKQKTTQLKKFLGKSVKRAKHLAEEYGERAINKVKSVRDEVFHTDQDDPSSSDDEGMPYTRPVKFKAAHGFKGPYDFDQIKVVQDLSGEHMGAVWTMKFSHCGRLLASAGQDNVVRIWALKNAFDYFNNMRMKYNTEGRVSPSPSQESLSSSKSDTDTGVCSGTDEDPDDKNAPFRQRPFCKYKGHTADLLDLSWSKNYFLLSSSMDKTVRLWHISRRECLCCFQHIDFVTAIAFHPRDDRYFLSGSLDGKLRLWNIPDKKVALWNEVDGQTKLITAANFCQNGKYAVIGTYDGRCIFYDTEHLKYHTQIHVRSTRGRNKVGRKITGIEPLPGENKILVTSNDSRIRLYDLRDLSLSMKYKGYVNSSSQIKASFSHDFTYLVSGSEDKYVYIWSTYHDLSKFTSVRRDRNDFWEGIKAHNAVVTSAIFAPNPSLMLSLDVQSEKSEGNEKSEDAEVLDATPSGIMKTDNTEVLLSADFTGAIKVFVNKRKNVS”, which “soluble on expression in E. coli” value is on record?
A: not soluble

Q: With “MKIMIIGATGMAGQALVTTALNRGHQVVAVARSAEKLATLPSNPNLTSIVRDAFNLTTTDLSAVDAVVDAFATAPDHAYLHVDLATHLISQLRETTTPRVAFILGAGSLTTGDDAHLFVHDLEQDPHAASFISVPQNQLKELTFLRDVDNVNWFGVSPAADFHPGEAQPALLGTDTLLFNDQQQSGTSAGTMAVAILDELENPLEHHHHHH” as the sequence, how does the “soluble on expression in E. coli” value read?
A: not soluble

Q: Which “soluble on expression in E. coli” value does the source give for “MSLAAVFPLADFRRAGFDRAGESDAWKDSIIKGDCVAALDALPSQSVDAIFADPPYNLQLGGTLHRPDQSLVDAVDDEWDQFASFDAYDAFTRAWLLACRRVLKPNGTIWVIGSYHNIFRVGAMLQNLDFWILNDIVWRKTNPMPNFKGRRFQNAHETMIWASRDPKAKSYTFNYDALKASNDDVQMRSDWLFPICSGHERLKGDDGKKVHPTQKPEALLARIIMASTKPGDIVLDPFFGSGTTGAVAKRLGRHFVGIEREQDYIDAASARITAVEPLGKAELTVMTGKKAEPRVAFNTLVESGLVRPGQVLTDARRRYSAIIRADGTLASGGTAGSIHRLGAKVQGLDACNGWTFWHFEDGDALKPIDDLRTIIRSEMAKAEGHHHHHH” here?
A: soluble

Q: Which “soluble on expression in E. coli” value does the source give for “MSLIRFRFVDDHRTDYSVKRMCTVLGLNRSSYYKWKASSAQRHRRLVDDAILGAKVQAIFDDKKQLYGAKRIAAELTFNDAYSSTGPVNHKRIARIMRKLQLRGYTKKRKVTTTQRERHRFIFADLVKRNFTAPAANRILVGDITYLPIADGSNMYLASVIDCYSRMLVGFAIADHMRTDLVEEALEHARRTRGSLSGAIFHSDHGSVYTSSQFQAVCRRLNVTQSMGAVGSSADNSLAESFNAALKREVLKDQKVFSNQLVCRRDVFAWCARYNTTRRHSWCKYLTPIEYESHASEGHHHHHH” here?
A: not soluble

Q: For “VLRSKSLCHDEIENLLDSDHRELIGDYSKAFLLQTVDGKHQDLKYISPETMVALLTGKFSNIVDKFVIVDCRYPYEYEGGHIKTAVNLPLERDAESFLLKSPIAPCSLDKRVILIFHCEFSSERGPRMCRFIRERDRAVNDYPSLYYPEMYILKGGYKEFFPQHPNFCEPQDYRPMNHEAFKDELKTFRLKTRSWAGERSRRELCSRLQDQ”, which “soluble on expression in E. coli” value is on record?
A: soluble

Q: With “METQDVVAKHYDELASEDRATRKSSKILSLRNLNNWVKSVLIALHTRPGYSVLDLACGKGGDLQKWQSQQITQYVGCDISKESLKTAQQRYQQLKKCTFTAQFLCGDCFSCRLSRYLEPDRNFHIVSCQFSMHYAFSCEEKVRRLLENVTERLVAGGFFIGTIPDSNVLVRKLRASSGLEFGNEFYRVVFDDSSSKTFTKPFGIRYHFYLESSVLDIPEYLVVMPVFEKLAKGYGLELQLVMNFHEFITMYLSAGSPFISLFHRMNILQDGGLSPEFWDTAYLYTVFAMKKQGASPWLGLSPESISYVDNTSFERKVIVMMDDEELDSERITFVDKEWNEMIPKRIKLQK” as the sequence, how does the “soluble on expression in E. coli” value read?
A: soluble

Q: With “DNIITGRMKPLHWREMKEVDPNRVTLIDARPRQAYEVEHIPGAISMPVEEIRARIGEIPHDKPIYVYCAVGMRGYFASNILRQCGFSNVRNLIGGYRLYSTITADYSSAGQPATAQLPAKDSPSSHTQVPE” as the sequence, how does the “soluble on expression in E. coli” value read?
A: not soluble

Q: Which “soluble on expression in E. coli” value does the source give for “MGREVAESCVDTMLMEMVAMYSGRFYANKPELAARRIEAIGYQVGHQLSERYTMERPRFSDHLEAIKFICKDFWSEVFKKQIDNLKTNHRGTFVLQDNKFRWLSRVSIDPSSENETQDPSTPGESKAAQAVSMYLYFPCGIIRGVLSNLGIPCAVSADISSLPTCSFVIRVKA” here?
A: not soluble

Q: Which “soluble on expression in E. coli” value does the source give for “MKKTHVTIGLSNPKSPTNVGAVMRAAGCYQVDDVRYTGERYDRAAKFQTDTKKVASKIPLTSVNCLLDDLPEDMKVVCVELAEGAVSLPQFQHPDKAIYVFGPEDGSITQQVADRADHVVYVPTVGCMNLAATVNVLLYDRLAK” here?
A: not soluble

Q: With “MHRTYSLRNSRAPTASQLQNPPPPPSTTKGRFFGKGGLAYSFRRSAAGAFGPELSRKLSQLVKIEKNVLRSMELTANERRDAAKQLSIWGLENDDDVSDITDKLGVLIYEVSELDDQFIDRYDQYRLTLKSIRDIEGSVQPSRDRKDKITDKIAYLKYKDPQSPKIEVLEQELVRAEAESLVAEAQLSNITRSKLRAAFNYQFDSIIEHSEKIALIAGYGKALLELLDDSPVTPGETRPAYDGYEASKQIIIDAESALNEWTLDSAQVKPTLSFKQDYEDFEPEEGEEEEEEDGQGRWSEDEQEDGQIEEPEQEEEGAVEEHEQVGHQQSESLPQQTTA” as the sequence, how does the “soluble on expression in E. coli” value read?
A: soluble

Q: For “MNIRNARPEDLMNMQHCNLLCLPENYQMKYYFYHGLSWPQLSYIAEDENGKIVGYVLAKMEEDPDDVPHGHITSLAVKRSHRRLGLAQKLMDQASRAMIENFNAKYVSLHVRKRSVKWSPNTMQMGRTPMP”, which “soluble on expression in E. coli” value is on record?
A: not soluble

Q: Which “soluble on expression in E. coli” value does the source give for “MDFNLNDEQELFVAGIRELMASENWEAYFAECDRDSVYPERFVKALADMGIDSLLIPEEHGGLEAGFVTVAAVWMELGRLGAPTYVLYQLPGGFNTFLREGTQEQIDKIMAFRGTGKQMWNSAITEPGAGSDVGSLKTTYTRKNGKVYLNGSKCFITSSAYTPYIVVMARDGASPDKPVYTEWFVDMSKAGIKVNKLEKLGLRMDSCCEITFDDVELDEKDMFGREGNGFNRVKEEFDHERFLVALTNYGTAMCAFEDAARYANQRVQFGEAIGRFQLIQEKFAHMAIKLNSMKNMLLEAAWKADNGTITSGDAAMCKYFCANAAFEVVDTAMQVLGGVGIAGNHRITRFWRDLRVDRVSGGSDEMQILTLGRAVLKQYR” here?
A: not soluble

Q: Which “soluble on expression in E. coli” value does the source give for “MAGPLSGLRVVELAGIGPGPHAAMILGDLGADVVRIDRPSSVDGISRDAMLRNRRIVTADLKSDQGLELALKLIAKADVLIEGYRPGVTERLGLGPEECAKVNDRLIYARMTGWGQTGPRSQQAGHDINYISLNGILHAIGRGDERPVPPLNLVGDFGGGSMFLLVGILAALWERQSSGKGQVVDAAMVDGSSVLIQMMWAMRATGMWTDTRGANMLDGGAPYYDTYECADGRYVAVGAIEPQFYAAMLAGLGLDAAELPPQNDRARWPELRALLTEAFASHDRDHWGAVFANSDACVTPVLAFGEVHNEPHIIERNTFYEANGGWQPMPAPRFSRTASSQPRPPAATIDIEAVLTDWDG” here?
A: soluble

Q: With “MAHHHHHHMIICNNNVNHFWKNIKKNIRLDGRTFEDSRNVCINFLKDYGHVEISIGFTKVICKITSEIVKPHDRKLKEGILKINLDIDNFIEDNENSDNMSDECLEIKNIIDRVLKTSNIINFESLCIIPGKKVWCICINIMVIENDGNLTDACYLSAYCGLVHFKNHQVRVIKNGDIIIDKEEINYSPLSILNSPIVTTFAYYEEHDVCLIDPCLHEEEFMSSKISIALNKNGNLISLLKPGGIPLACSHIMESIEIAKKRILTILKILEDTLEEDKNIRSYLTKRNLHVKYSSAPVTIRYDNSFKLKPDISLERYTKNTLIFEDTIKKIEQYIQYNQVQECLNNMNVKLEENDQEEIETCTLKGEGNLNNPNFIDPMRNTNLLNPTDITIIKRQEFVDNHYDANNNKYNTQANKTFKKELIDFSNLLTQNHKKSNNLSNNQKDISEQHDNSQESSDDASTIRSDESSDIDFSVAINQNIKKKK” as the sequence, how does the “soluble on expression in E. coli” value read?
A: not soluble

Q: For “GPGSMLRLSASRRSAQNILHDIQAAVESRSIMATSSFAQRRSFLVALSEELHRNSEHIIHANRRDCDLFGRQQQQRGTPSVTIPPTLPSTSAATSLQPSSSLHGGPAGYPPFLGRPGHRVGDAQGISVAAENPATATPAPNAAEGSGASSPRRQSSLDYVAGASPVGSPDPNGAGGAAAGGRAAASPAGAGPALGETAAGSRATSTSGTAAPVSPSRWAARASSASLQLVPTAVSGHATRTEAGGGGGHLLITPDNHFLISPLRLDKLHTTIEYLLCQPDPIAIPPSCWLHDSAEGDSGAAANSLREQGSLGAAPGHNSPPPPSAAGSHAGCGRCTRRTDRLEVYELSVPLGMVGILSRFRPRISIDTVAMGLFAGNTVLLDGGVSLYNTNMALMSSVRRALTTAGLSPSAVVCVESYDAAHRSTSEWLQLSDCVDLAVVCGPPKLYQFASRYSTIPLMRATGQFSSVYVDQSASFEVALEVILNSKFQKLGAANAVTTVIVHSDFPRYTELVLALAAEGAVLLGDVTAQERVPDCVLELASEEEYQGLSQYGLRDAARTLCLKTVDSLAQALFFIESFGSKQSDCIVATDLEVCATYCRHVDTAVALVNASTRLSSGVPLGCGVDFAISTSKTHCRGPLTVEMMTTRKLVARSLSAHHGALR”, which “soluble on expression in E. coli” value is on record?
A: not soluble

Q: With “SKNEKEQLSKAKASVSSLNKVIQTKLTVGNLGLGLVVIQNGPYLQISHLINKGAAASDGILQPGDVLISVGHANVLGYTLREFLKLLQNITIGTVLQIKAYRGFLEIPQEWQD” as the sequence, how does the “soluble on expression in E. coli” value read?
A: soluble

Q: With “MCGIVGANSTRNVTNILIEGLKKLEYRGYDSAGLAIIDDKNNIDICKEVGKVIELEKSVHNLANFKGDIGIAHTRWATHGKPSKNNSHPHASESFCIVHNGVIENFAELKKVLINDGYKFKSDTDTEVIAHLLQKEWRDNFSIVDNIKYIMAMLKGAYAVAIISQKFSDKIVAVRSGSPLVIGVGIDENFISSDALSLLPVTNKFSYLDEGDIAIISKDNVEVFDNNGAAKNLEVEEYNYSSSSASKDGYKHYMLKEIYEQPEAVSNTILASLADGEISLDSFDKRAKELFEKTKHICIVACGTSYNAGMTAKYWIEKYAKVPCSVEIASEIRYRDNVVVDGSLFVSISQSGETADTLESLRKSKKQNYVGSMCICNVPNSSLVRESDIAFMTKAGVEIGVASTKAFTTQLVALAIFTLVIAKLKNSLTDQQIAKYTEELKNIRALVMGALKLDTEIDQISEYFSDKEHTIFLGRGLYYPIAIEGALKLKEISYIHAEAYPSGELKHGPLALVDKNMPIVAVVPNDELLDKTLSNLQEVHARGGKLILFVDKAVKERVNFDNSIVLELDAGHDFSAPVVFTIPLQLLSYHVAIIKGTDVDQPRNLAKSVTVE” as the sequence, how does the “soluble on expression in E. coli” value read?
A: not soluble

Q: For “MGHHHHHHMSADFGLIGLAVMGQNLILNAADHGFTVCAYNRTQSKVDHFLANEAKGKSIIGATSIEDFISKLKRPRKVMLLVKAGAPVDALINQIVPLLEKGDIIIDGGNSHFPDSNRRYEELKKKGILFVGSGVSGGEEGARYGPSLMPGGSEEAWPHIKNIFQSISAKSDGEPCCEWVGPAGAGHYVKMVHNGIEYGDMQLICEAYDIMKRLGGFTDKEISDVFAKWNNGVLDSFLVEITRDILKFDDVDGKPLVEKIMDTAGQKGTGKWTAINALDLGMPVTLIGEAVFARCLSALKNERIRASKVLPGPEVPKDAVKDREQFVDDLEQALYASKIISYAQGFMLIREAAATYGWKLNNPAIALMWRGGCIIRSVFLGQITKAYREEPDLENLLFNKFFADAVTKAQSGWRKSIALATTYGIPTPAFSTALSFYDGYRSERLPANLLQAQRDYFGAHTFRVLPECASDNLPVDKDIHINWTGHGGNVSSSTYQA”, which “soluble on expression in E. coli” value is on record?
A: soluble
